Reference: publication PMC4788688, “Chemical shift assignment of the alternative scaffold protein IscA” (Biomolecular Nmr Assignments, 2016)

Biological target: the molecule itself
Experiment: SEC; purified IscA in 20 mM Tris-HCl with 20 mM DTT or 5 mM TCEP; chromatograms showed no significant differences at 50, 150 or 1000 mM NaCl; self-association into dimers and higher species

B1: E. coli IscA protein (cluster-free) (natural protein)
chain: MSITLSDSAAARVNTFLANRGKGFGLRLGVRTSGCSGMAYVLEFVDEPTPEDIVFEDKGVKVVVDGKSLQFLDGTQLDFVKEGLNEGFKFTNPNVKDECGCGESFHV
notes: IscA of E. coli, recombinant, printed length 107 residues (11.5 kDa); cluster-free; 15N- or 13C/15N-labelled for NMR; also called alternative scaffold protein IscA; source: E. coli BL21 (DE3), pETM30 vector, purified (DEAE and Q anion exchange, Superdex 75 size exclusion)
  binding result: binds
